From patent US20260183373A1

Key:
Aβ(1-40) [1] = molecular target: Aβ(1-40) (UniProt P05067)
Aβ(1-42) [2] = molecular target: Aβ(1-42) (UniProt P05067)
Aβ(1-40) [3] = molecular target: Aβ(1-40) (UniProt P05067); assay: cell-based or functional assay
Aβ(1-42) [4] = molecular target: Aβ(1-42) (UniProt P05067); assay: cell-based or functional assay
Aβ(1-40) [5] = molecular target: Aβ(1-40) (UniProt P05067); remark: listed apart in the source
Aβ(1-42) [6] = molecular target: Aβ(1-42) (UniProt P05067); remark: listed apart in the source

neprolysin (NEP), sequence (P08473 52-750 limits assumed): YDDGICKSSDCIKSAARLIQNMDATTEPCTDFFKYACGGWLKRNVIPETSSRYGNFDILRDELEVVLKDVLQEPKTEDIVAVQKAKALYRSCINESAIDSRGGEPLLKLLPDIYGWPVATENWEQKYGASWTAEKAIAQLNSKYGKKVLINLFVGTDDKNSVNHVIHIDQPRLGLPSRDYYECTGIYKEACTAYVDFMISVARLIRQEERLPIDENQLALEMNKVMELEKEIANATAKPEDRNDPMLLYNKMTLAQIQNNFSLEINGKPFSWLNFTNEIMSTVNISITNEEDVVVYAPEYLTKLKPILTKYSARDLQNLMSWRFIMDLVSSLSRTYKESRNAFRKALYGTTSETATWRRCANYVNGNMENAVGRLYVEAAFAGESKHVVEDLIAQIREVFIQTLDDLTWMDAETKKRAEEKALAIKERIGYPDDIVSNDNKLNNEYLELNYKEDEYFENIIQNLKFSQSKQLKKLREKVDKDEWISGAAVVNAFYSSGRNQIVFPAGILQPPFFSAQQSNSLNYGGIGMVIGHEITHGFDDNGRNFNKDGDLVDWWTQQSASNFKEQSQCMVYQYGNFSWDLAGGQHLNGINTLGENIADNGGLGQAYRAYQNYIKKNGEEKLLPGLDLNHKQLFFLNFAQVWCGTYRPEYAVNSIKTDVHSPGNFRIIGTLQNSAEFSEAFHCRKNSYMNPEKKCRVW
MMP2 (enzyme), sequence (P08253 110-660): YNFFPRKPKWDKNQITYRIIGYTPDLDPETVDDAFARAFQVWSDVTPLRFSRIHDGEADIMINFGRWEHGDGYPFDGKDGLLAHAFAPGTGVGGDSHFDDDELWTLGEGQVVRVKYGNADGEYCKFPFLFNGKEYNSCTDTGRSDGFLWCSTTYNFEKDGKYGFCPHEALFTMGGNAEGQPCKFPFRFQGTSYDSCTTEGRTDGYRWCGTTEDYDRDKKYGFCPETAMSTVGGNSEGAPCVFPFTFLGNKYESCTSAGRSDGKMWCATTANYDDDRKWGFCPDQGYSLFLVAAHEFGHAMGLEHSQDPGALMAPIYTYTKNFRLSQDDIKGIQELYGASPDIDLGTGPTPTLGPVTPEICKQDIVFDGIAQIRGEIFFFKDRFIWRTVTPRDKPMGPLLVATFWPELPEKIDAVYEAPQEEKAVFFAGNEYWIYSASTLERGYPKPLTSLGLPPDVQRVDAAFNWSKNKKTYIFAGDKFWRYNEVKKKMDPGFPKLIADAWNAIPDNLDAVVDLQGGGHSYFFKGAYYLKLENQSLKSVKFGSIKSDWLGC

| EC50 of Aβ(1-40) cleavage (intact Aβ by ELISA) (Aβ(1-40) [1]) [nM] | EC50 of Aβ(1-42) cleavage (intact Aβ by ELISA) (Aβ(1-42) [2]) [nM] | EC50 of Aβ cleavage (ELISA-based assay of intact Aβ) (Aβ(1-40) [3]) [nM] | EC50 of Aβ cleavage (ELISA-based assay of intact Aβ) (Aβ(1-42) [4]) [nM] | EC50 (read off the curve) (Aβ(1-40) [5]) [nM] | EC50 (read off the curve) (Aβ(1-42) [6]) [nM] | Substance |
| --- | --- | --- | --- | --- | --- | --- |
| 19 | 44 | 12 | 12 |  |  | neprolysin (NEP) (from UniProt P08473 52-750) (enzyme) |
|  |  |  |  | 50 | 60 | NEP2 (enzyme) |
|  |  |  |  | 90 |  | MMP2 (enzyme) |
|  |  | 0.1 | 0.1 |  |  | insulin-degrading enzyme (IDE) (from UniProt P14735 42-1019) |
